The text below walks through data of paper doi:10.1101/2020.05.18.102780.

In this test the target is Ktedonobacter racemifer acyl carrier protein (KrACP) (Ktedonobacter racemifer DSM 44963). As to the kind of experiment: SDS-PAGE.

In the case of “Ktedonobacter racemifer acyl carrier protein (KrACP) (natural protein)”, the stoichiometry N – broadly, a count of units in the complex or per binding partner – turned out to be 2.
